Experimental data taken from patent US20160244499A1.

Tests used:
[1] = molecular target: C-terminally biotinylated IL-13Rα1 ectodomain (human) (UniProt P78552); test: Table 1, affinity for IL-13Rα1; method for this row not stated
[2] = molecular target: C-terminally biotinylated γc ectodomain (human) (UniProt P31785); test: SPR, cytokine/IL-4Rα complex on immobilised γc
[3] = molecular target: C-terminally biotinylated γc ectodomain (human) (UniProt P31785); test: SPR, comparison of affinities for γc and IL-13Rα1
[4] = molecular target: C-terminally biotinylated IL-13Rα1 ectodomain (human) (UniProt P78552); test: SPR (Biacore T100), biotinylated IL-13Rα1 on SA chip, cytokine/IL-4Rα complex as analyte
[5] = molecular target: C-terminally biotinylated γc ectodomain (human) (UniProt P31785); test: SPR (Biacore T100), biotinylated γc on SA chip, cytokine/IL-4Rα complex as analyte, 1:1 model
[6] = molecular target: T1, γc on human cell lines (Ramos, HH, U937) (human) (UniProt P31785); test: cell-based or functional assay
T1 sequence (looked up): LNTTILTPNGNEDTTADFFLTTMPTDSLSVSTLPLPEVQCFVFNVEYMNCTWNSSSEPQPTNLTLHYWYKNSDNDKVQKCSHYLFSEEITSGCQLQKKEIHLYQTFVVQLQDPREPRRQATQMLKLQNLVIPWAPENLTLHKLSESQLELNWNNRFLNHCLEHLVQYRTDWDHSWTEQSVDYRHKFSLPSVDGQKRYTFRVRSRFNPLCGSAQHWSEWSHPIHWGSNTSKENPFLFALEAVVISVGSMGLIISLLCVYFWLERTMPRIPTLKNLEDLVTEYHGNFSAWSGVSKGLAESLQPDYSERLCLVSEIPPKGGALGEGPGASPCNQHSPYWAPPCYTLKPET

[7] = molecular target: C-terminally biotinylated IL-13Rα1 ectodomain (human) (UniProt P78552); test: SPR (Biacore T100), biotinylated IL-13Rα1 on SA chip, cytokine/IL-4Rα complex as analyte, 1:1 model

wild-type IL-4, free recombinant cytokine, sequence (P05112 other isoform, or with tags, fused parts or gaps): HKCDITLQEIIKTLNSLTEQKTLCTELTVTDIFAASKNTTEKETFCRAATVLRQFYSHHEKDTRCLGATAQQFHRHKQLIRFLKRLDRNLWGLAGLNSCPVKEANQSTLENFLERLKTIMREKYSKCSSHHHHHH

IL-13 (from UniProt P35225 35-146) (ligand)
Kd [1]: 0.03 µM

RGA/IL-4Rα binary complex (from UniProt P24394 26-202)
fold faster on-rate (against IL-4) [2]: 6 fold | fold higher affinity (against IL-4/IL-4Rα) [2]: 3700 fold | logs gained in binding affinity (against IL-4) [2]: 4 log | selectivity for the Type-I receptor complex over the Type-II receptor [3]: 6 log | Kd [4]: 21 µM | Kd [5]: 0.00089 µM | koff [5]: 0.00059 s⁻¹ | kon [5]: 660000 M⁻¹ s⁻¹

wild-type IL-4, free recombinant cytokine (from UniProt P05112 25-153) (ligand)
mean MFI of STAT6 phosphorylation, Ramos cells, 100 pg/ml, 20 minute stimulation [6]: 7.7 MFI | percentage decrease in STAT6 phosphorylation caused by 50 µg/ml of anti-γc, Ramos cells, 100 pg/ml cytokine [6]: 58% | reduction in STAT6 phosphorylation on blocking γc in U937 cells [6]: 44%

wild-type IL-4/IL-4Rα binary complex (from UniProt P24394 26-202)
Kd [5]: 3.3 µM | koff [5]: 0.31 s⁻¹ | kon [5]: 95000 M⁻¹ s⁻¹ | Kd [7]: 4.2 µM | koff [7]: 0.17 s⁻¹ | kon [7]: 41000 M⁻¹ s⁻¹
